The values below come from paper PMC1885261, “Structure of the dimeric N-glycosylated form of fungal β-N-acetylhexosaminidase revealed by computer modeling, vibrational spectroscopy, and biochemical studies” (BMC Structural Biology, 2007).

Substrate in the data set: CC(=O)N[C@H]1[C@H](Oc2ccc([N+](=O)[O-])cc2)O[C@H](CO)[C@@H](O)[C@@H]1O
As to the kind of experiment: 4-nitrophenyl substrate hydrolysis assay. It counts as biochemical, Aspergillus oryzae. Particulars: substrate concentrations around Km.

B1: β-N-acetylhexosaminidase (native form) (Aspergillus oryzae) (protein)
chain 1: VGVNPLPAPREISWGSSGPKSIAGELQLRTDSDSADGIVADAWNRAWETIVALRWVPAATEAPISSFEPFPTPTAGAS
chain 2: ASNSLQYVNVQVKDIEADLQHGVDESYTLDVEEDSDTITINAETVWGALHAFTTLQQLVISDGHGGLIIEEPVNIKDSPLYPYRGIMLDTGRNFVSLPKIFEQLEGMSLSKLNVLHWHIDDAQSWPIWVDVYPEMVKDAYSPHEIYSRNDVRNIVNYARARGIRVIPEIDMPSHSSSGWKQVDPEMVTCTDSWWSNDDWPLHTAVEPNPGQLDIIYNKTYEVVGNVYKELSDIFPDHWFHVGGDEIQPNCFNFSTHVTKWFAEDPSRTYHDLAQYWVDHAVPIFQNYSQERRLVMWEDIALSADNAHDVPKNIVMQSWNNGLEYISNLTARGYDVIVSSSDFLYLDCGHGGFVTNDPRYNVMANPDANTPNFNYGGNGGSWCAPYKTWQRIYDYDFTLNLTETQAKHIIGATAPLWGEQVDDINVSSMFWPRAAALAELVWSGNRDANGNKRTTEMTQRILNFREYLVANGVQAQALVPKYCLQHPHACDLYRNQAAIQ
notes: native enzyme purified from culture medium of A. oryzae; secreted, fully N-glycosylated (six sites), dimer; GH20
Turning to B1, where the note is “native N-glycosylated form”, the Km (commonly the substrate concentration at which the rate is half of its maximum) was found to be 450 µM.

B2: deglycosylated β-N-acetylhexosaminidase (Aspergillus oryzae) (protein)
chain 1: B1 chain 1
chain 2: B1 chain 2
notes: same polypeptide as P1, native purification, enzymatically N-deglycosylated under native conditions (endoglycosidase H, leaving core GlcNAc, or N-glycanase)
In the case of B2, where the note is “deglycosylated form”, the Km turned out to be 710 µM.
